Target: T1, Recombinant human IL-17A (Peprotech, cat #AF-200-17) (human, UniProt Q16552 24-155)
T1 construct: Bought protein
Assay: SPR (BIAcore T200), IL-17A coupled to CM5 chip, VH as analyte, single-cycle kinetics
Experimental: VH binding kinetics were then determined from the (blank subtracted) sensorgram traces using 1:1 binding models and BIAevaluation software.

T1 sequence (Q16552 24-155): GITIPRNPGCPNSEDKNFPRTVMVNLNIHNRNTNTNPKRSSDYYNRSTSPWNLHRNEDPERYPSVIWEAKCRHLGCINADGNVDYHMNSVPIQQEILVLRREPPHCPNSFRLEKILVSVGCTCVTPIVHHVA

Kd: 1.5 nM
B1: Clone 1.17 (VHH)
VHH: EVQLVESGGGLVQPGGSLRLSCAASGFTFSSYSMYWVRQAPGKGLEWVAEIKPTGSVQYYVSDVKGRFTISRDNAKNSLYLQMNSLRAEDTAVYYCAKGEILPLYFDYWGQGTLVTVSS
notes: Human single VH domain; also called VH 1.17.1
